Ends that are not written are not given here.
Columns and labels:
[1] = Degradation of synthetic peptides added to fresh plasma, MALDI-TOF MS read-out; format: in vitro ADME, human
Method: In an effort to begin to understand the presence and roles of exoproteases, synthetic C3f was added to fresh plasma at a concentration close to that observed in serum. […] The resulting pattern was similar to the endogenous one observed in serum and also illustrated the disparate ion intensities for different rungs in the ladder.

[2] = Degradation of synthetic peptides in control serum and plasma (MALDI-TOF MS-based protease assay); format: in vitro ADME, human
Text: A large part of the human serum ‘peptidome’, as detected by MALDI-TOF MS, is generated ex vivo (i.e., after blood collection) by protease degradation of blood proteins. Endoproteases produce ‘founder peptides’ which are then pared down by exoproteases into ladder-like clusters. Panels of proteolytic activity in the blood contribute important cancer type-specific information, and that the resulting metabolic patterns have utility as surrogate markers for detection and classification of cancer. Degradation occurs during clotting. The use of exogenous synthetic peptides, identical to previously observed founder peptides, can be used to monitor cancer-specific proteolytic degradation in plasma or serum that contains proteases. Conditions in terms of time, temperature and added amounts of substrates can hereby be readily controlled. Coupled to a MALDI-based read-out, such analyses are blood “protease assays” to monitor the tumor-dependent activities inferred from prior studies. Simultaneous addition of non-degradable, exogenous reference peptides also enables relative quantitation of all rungs in the ladders.
The degradation conditions and times were studied for C3f and FPA in serum and plasma as described above. […] 2 picomoles [^13C-Leu]-labeled C3f was incubated for 30 min at RT with […] aliquots of serum from 20 different breast cancer patients and 20 control samples. […]

Row | Substance | exoproteolytic degradation in plasma (in words) [1] | degradation in control serum and plasma (in words) [2] | degradation time [2]
1 | FPA: synthetic fibrinopeptide A, N-terminally cleaved from fibrinogen by thrombin (ADSGEGDFLAEGGGVR; Fibrinopeptide A; UniProt P02671 20-35, looked up) | followed a similar time course | readily degraded | up to 4 hours
2 | FPB: fibrinopeptide B, added to plasma like synthetic FPA (QGVNDNEEGFFSAR; ends and bridges not checked; UniProt P02675 31-44, looked up) | completely degraded in just a few minutes |  | 
